According to article PMC7529148 (Nature structural & molecular biology, 2020):

B1: ClpP (enzyme)
chain: not shown
B2: ClpA (enzyme, E. coli, UniProt P0ABH9 1-758, looked up)
chain: MLNQELELSLNMAFARAREHRHEFMTVEHLLLALLSNPSAREALEACSVDLVALRQELEAFIEQTTPVLPASEEERDTQPTLSFQRVLQRAVFHVQSSGRNEVTGANVLVAIFSEQESQAAYLLRKHEVSRLDVVNFISHGTRKDEPTQSSDPGSQPNSEEQAGGEERMENFTTNLNQLARVGGIDPLIGREKELERAIQVLCRRRKNNPLLVGESGVGKTAIAEGLAWRIVQGDVPEVMADCTIYSLDIGSLLAGTKYRGDFEKRFKALLKQLEQDTNSILFIDEIHTIIGAGAASGGQVDAANLIKPLLSSGKIRVIGSTTYQEFSNIFEKDRALARRFQKIDITEPSIEETVQIINGLKPKYEAHHDVRYTAKAVRAAVELAVKYINDRHLPDKAIDVIDEAGARARLMPVSKRKKTVNVADIESVVARIARIPEKSVSQSDRDTLKNLGDRLKMLVFGQDKAIEALTEAIKMARAGLGHEHKPVGSFLFAGPTGVGKTEVTVQLSKALGIELLRFDMSEYMERHTVSRLIGAPPGYVGFDQGGLLTDAVIKHPHAVLLLDEIEKAHPDVFNILLQVMDNGTLTDNNGRKADFRNVVLVMTTNAGVRETERKSIGLIHQDNSTDAMEEIKKIFTPEFRNRLDNIIWFDHLSTDVIHQVVDKFIVELQVQLDQKGVSLEVSQEARNWLAEKGYDRAMGARPMARVIQDNLKKPLANELLFGSLVDGGQVTVALDKEKNELTYGFQSAQKHKAEAAH

Assays:
ClpA = target: B2; test: cryo-EM structure
cryo-EM structure = target: the molecule itself; test: cryo-EM structure

Row | Binder | binding result (ClpA) | stoichiometry N (cryo-EM structure)
1 | B1 | binds | 14
2 | B2 |  | 6
